According to PMC4556315, “Structure of the JmjC domain-containing protein NO66 complexed with ribosomal protein Rpl8” (Acta Crystallographica Section D: Biological Crystallography, 2015):

Experiments:
[1] = molecular target: the molecule itself; assay: SEC; Superdex 200 10/300, 20 mM Tris-HCl pH 7.5, 200 mM NaCl; molecular weight estimated from the elution volume
[2] = molecular target: T1, C-terminal fragment of wild-type human NO66 (NO66^176–C) (human, UniProt Q9H6W3 176-641); assay: pull-down; GST-Rpl8 fragments immobilised on GST beads from E. coli lysate and washed, incubated with purified NO66^176–C at 277 K for 1 h; buffer B (50 mM HEPES pH 7.5, 300 mM NaCl, 0.1% Triton X-100); SDS-PAGE; settings: both partners purified
T1 construct: Cloned in pET-28a(+); Tetramer in the crystal; also called Nucleolar protein 66; wild-type NO66; source: E. coli Rosetta 2 (DE3), purified (Ni-NTA, tag removed by TEV protease, Superdex 200); not shown: His-SUMO, N-terminal, cleaved

[3] = molecular target: T1, C-terminal fragment of wild-type human …; assay: crystal structure; NO66^176–C with Ni2+, NOG and Rpl8^204–224 peptide (protein:NOG:Ni2+:peptide 1:4:10:15); sitting drop, 295 K, 0.1 M imidazole pH 6.5, 0.5 M sodium acetate; 2.2 Å; settings: both partners purified

B1: NO66^176–C mutant M3 (F450A/R452A/P455A) (enzyme, human, UniProt Q9H6W3 176-641, looked up)
chain: GGEPAWDSPLRRVLAELNRIPSSRRRAARLFEWLIAPMPPDHFYRRLWEREAVLVRRQDHTYYQGLFSTADLDSMLRNEEVQFGQHLDAARYINGRRETLNPPGRALPAAAWSLYQAGCSLRLLCPQAFSTTVWQFLAVLQEQFGSMAGSNVYLTPPNSQGFAPHYDDIEAFVLQLEGRKLWRVYRPRVPTEELALTSSPNFSQDDLGEPVLQTVLEPGDLLYFPRGFIHQAECQDGVHSLHLTLSTYQRNTWGDFLEAILPLAVQAAMEENVEARAGLARDFMDYMGAQHSDSKDPRRTAFMEKVRVLVARLGHFAPVDAVADQRAKDFIHDSLPPVLTDRERALSVYGLPIRWEAGEPVNVGAQLTTETEVHMLQDGIARLVGEGGHLFLYYTVENSRVYHLEEPKCLEIYPQQADAMELLLGSYPEFVRVGDLPCDSVEDQLSLATTLYDKGLLLTKMPLALN
notes: source: E. coli Rosetta 2 (DE3), purified (Ni-NTA, tag removed by TEV protease, Superdex 200); not shown: His-SUMO, N-terminal, cleaved
- stoichiometry N [1]: 2

B2: GST-Rpl8 fragment 193–224 (domain or fragment)
chain: not shown
notes: Cloned in pGEX-6P-1
- binding result [2]: binds

B3: Rpl8^204–224 peptide (human ribosomal protein L8) (peptide, UniProt P62917 204-224, looked up)
peptide: MNPVEHPFGGGNHQHIGKPST
notes: Only residues 212–222 are visible in the structure; also called Rpl8 peptide; source: synthetic peptide
- binding result [3]: binds
